In patent US20100240033A1 (INSTITUT NATIONAL DE LA SANTE ET DE LA RECHERCHE MEDICAL …, published 2010):

Experiments:
[1] = molecular target: T1, wild-type human prolactin receptor (PRLR), isoform 1 (human, UniProt P16471 25-622); assay: cell-based or functional assay
T1 sequence: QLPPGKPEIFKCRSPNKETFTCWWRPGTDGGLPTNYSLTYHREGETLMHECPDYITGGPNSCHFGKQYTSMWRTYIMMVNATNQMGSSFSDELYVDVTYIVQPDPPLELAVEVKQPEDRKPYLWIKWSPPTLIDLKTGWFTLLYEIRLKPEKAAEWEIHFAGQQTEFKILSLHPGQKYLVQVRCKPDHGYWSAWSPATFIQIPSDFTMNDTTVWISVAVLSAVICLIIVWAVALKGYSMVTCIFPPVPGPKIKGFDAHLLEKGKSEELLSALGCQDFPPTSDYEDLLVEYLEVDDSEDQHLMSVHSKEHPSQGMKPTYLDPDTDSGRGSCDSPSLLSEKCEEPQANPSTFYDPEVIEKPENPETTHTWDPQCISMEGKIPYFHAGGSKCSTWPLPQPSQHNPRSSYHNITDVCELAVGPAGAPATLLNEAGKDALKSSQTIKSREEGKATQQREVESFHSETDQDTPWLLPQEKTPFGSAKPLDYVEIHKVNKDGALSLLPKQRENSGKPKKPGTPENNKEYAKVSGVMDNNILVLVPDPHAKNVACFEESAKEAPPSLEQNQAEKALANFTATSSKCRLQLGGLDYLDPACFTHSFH

[2] = molecular target: T2, human prolactin receptor mutant I76V (human, UniProt P16471 25-622); assay: cell-based or functional assay
T2 sequence: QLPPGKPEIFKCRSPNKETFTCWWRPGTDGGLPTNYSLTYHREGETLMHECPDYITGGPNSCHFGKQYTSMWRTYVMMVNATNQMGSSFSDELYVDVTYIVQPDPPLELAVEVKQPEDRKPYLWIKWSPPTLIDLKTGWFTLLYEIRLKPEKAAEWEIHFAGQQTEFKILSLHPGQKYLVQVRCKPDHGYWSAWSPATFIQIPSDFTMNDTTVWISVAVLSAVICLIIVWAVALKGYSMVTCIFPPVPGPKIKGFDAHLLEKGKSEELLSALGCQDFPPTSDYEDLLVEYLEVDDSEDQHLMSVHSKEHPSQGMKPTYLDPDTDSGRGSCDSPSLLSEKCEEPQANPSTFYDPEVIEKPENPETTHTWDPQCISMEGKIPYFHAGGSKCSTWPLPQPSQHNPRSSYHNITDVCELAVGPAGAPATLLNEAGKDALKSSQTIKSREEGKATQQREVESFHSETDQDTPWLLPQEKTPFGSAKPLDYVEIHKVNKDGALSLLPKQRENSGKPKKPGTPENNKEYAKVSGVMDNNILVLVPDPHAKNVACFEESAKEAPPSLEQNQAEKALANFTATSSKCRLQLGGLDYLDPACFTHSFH

[3] = molecular target: T1, wild-type human prolactin receptor …; assay: radioligand competition ([125I]-hPRL vs unlabeled hPRL) on homogenates of stably transfected HEK 293 cells, Scatchard analysis
Experimental: (§1) Binding affinities of mutated PRLR for hPRL were determined using cell homogenates of stably transfected HEK 293, following a procedure previously described (KINET et al., J Biol Chem, 274, 26033-26043, 1999). Briefly, recombinant hPRL, produced in bacteria E. coli using the pT7L expression vector, and purified as described previously (PARIS et al., Biotechnol Appl Biochem, 12, 436-449, 1990), was iodinated using the Iodogen method, and its specific activity was in the range of 4-5 μCi/μg. Binding assays were performed overnight at room temperature using 150-300 μg cell homogenate protein in the presence of 20,000-30,000 cpm [¹²⁵I]-hPRL and increasing concentrations of unlabeled hPRL (competitor). Scatchard analysis was performed to determine the binding affinity of mutated PRLR and the number of PRLR per cell in stable clones or populations.

[4] = molecular target: T2, human prolactin receptor mutant I76V; assay: as above
Experimental: as §1

B1: recombinant human prolactin (hPRL) (ligand, UniProt P01236 29-227, looked up)
chain: LPICPGGAARCQVTLRDLFDRAVVLSHYIHNLSSEMFSEFDKRYTHGRGFITKAINSCHTSSLATPEDKEQAQQMNQKDFLSLIVSILRSWNEPLYHLVTEVRGMQEAPEAILSKAVEIEEQTKRLLEGMELIVSQVHPETKENEIYPVWSGLPSLQMADEESRLSAYYNLLHCLRRDSHKIDNYLKLLKCRIIHNNNC
modifications: tracer form iodinated (125I, Iodogen method); unlabeled hPRL used as competitor
notes: Recombinant hPRL from bacteria; also called WT hPRL; [125I]-hPRL
[1]
  fold stimulation of LHRE-luciferase activity induced by PRL (stable HEK 293 clones, 1 ug/ml PRL): 8 fold
[2]
  fold induction of LHRE-luciferase activity by PRL (transient transfection, HEK 293): 5 fold
[3]
  Kd: 0.64 nM
[4]
  Kd: 0.44 nM
